# Results: the DeepSol protein solubility set
# Assay: soluble on expression in E. coli; label from the status in PepcDB or PDB records
row,Sequence,soluble on expression in E. coli
1,MGSDKIHHHHHHMHYNDQGADFKYLIVNERDKRFGLSVTTVGFQAIRAGSVYPPRNHPDAYYFTAQKGRVLHEYQLVYITKGRGTFASDTTPSVDISKGQILFLFPGQWHTYAPLQKTGWNEYYIGFEGPIIDNLVKNSFISKESQILDIGINEELASLFARALEVAEADKTAAQQYLSGIVLHIMGAVLAISQNKRYEVDNAAQKIESAKIIMHENVYKDIDPEELAMKLGISYSWFRKVFKEYTGYAPAKYFQELKLRKAKQLLIESSMSVKEICYELNYTSTEHFFSVFKKRTNFTPTEYRNFGRGGKEKENENE,not soluble
2,MRRVDQPRPPGTPFGLREQTTSNADAPARTAPPAHPAPERPTGMLGGLTRYVPGDRSGRPPAMPAAAETSRRPTTSARPLPYGGSGSAARMNEAAGHPLRMPQLPQLSDIERARFHSVTTDSQHLRPVRPRMPPPVGASPLRRSTALRPYHDVLSQWQRHYNADRNRWHSAWRQANSNNPQIETRTGRALKATADLLEDATQPGRVALELRSVPLPQFPDQAFRLSHLQHMTIDAAGLMELPDTMQQFAGLETLTLARNPLRALPASIASLNRLRELSIRACPELTELPEPLASTDASGEHQGLVNLQSLRLEWTGIRSLPASIANLQNLKSLKIRNSPLSALGPAIHHLPKLEELDLRGCTALRNYPPIFGGRAPLKRLILKDCSNLLTLPLDIHRLTQLEKLDLRGCVNLSRLPSLIAQLPANCIILVPPHLQAQLDQHRPVARPAEPGRTGPTTPALSPSAAGDRAGPSSSATASELLLTAALERIEDTAQAMLSTVIDEERNPFLEGAPSYLPGKRPTDVTTFGQVPALRDMLAESRDLEFLQRVSDMAGPSPRIEDPSEEGLARHYTNVSNWKAQKSAHLGIVDHLGQFVYHEGSPLDVATLAKAVQMWKTRELIVHAHPQDRARFPELAVHIPEQVSDDSDSEQQTSPEPSGHQ,soluble
3,MNALARRAAGLLLGTLCLPLAAFAADVQPTHEFILDNGLKVVVREDHRAPVVVSQIWYKVGSSYETPGQTGLSHALEHMMFKGSAKVGPGEASRILRDLGADENAFTSDDYTAYYQVLARDRLPVALELEADRLASLRLPADEFSREIEVIKEERRLRTDDQPNAKAFELFRAMAYPASGYHTPTIGWMADLERMKVEELRHWYESWYAPNNATLVVVGDVTADEVKGLAQKYFGNIPKRA,not soluble
4,MGSDKIHHHHHHMQEMILLQQKVDETIRALGGYFRPLSGLARLIEEVGEVGEALETGDELSFQAELVDVLMISTCLANQYVTDLAQQHQQLGTMEDEGQGSFYRLVHEAGQVARVMNGYEGDKPPKQTEDIIPIGMSLARLQRELFRLVRPHGINLLQEIDRTNEKNLNRDRKRFALTRDPVTEATIDHFRSATGNTERLWGAPAYESDLALEAHIQAALPSLRRFLRCARIEGIAGFVIEAPMERTDSLRSVKDQADEIGRIVKEQTPLSFKEAPYRIDVYAPQLGPVSPYHAEDDHRMFLVLHVDE,not soluble
5,SLSFASSACFNEAGTMFRIEPNLIKAIALVESNLKKDSIGKNRDKKNNIKSFDYGLMQINQMHIPMLKKRGIIKDERDLLDNPCLNIKIGTEILYKHFSRCGMTWQCLGTYNAGFAMDNQKKRLQYAKKIYIVYTRLNELDNRKALA,not soluble
6,MVSKNKKLNLKDKYQYLTRDMAWEPTYQDKKDIFPEEDFEGIKITDWSQWEDPFRLTMDAYWKYQAEKEKKLYAIFDAFAQNNGHQNISDARYVNALKLFISGISPLEHAAFQGYSKVGRQFSGAGARVACQMQAIDELRHSQTQQHAMSHYNKHFNGLHDGPHMHDRVWYLSVPKSFFDDARSAGPFEFLTAISFSFEYVLTNLLFVPFMSGAAYNGDMATVTFGFSAQSDEARHMTLGLEVIKFILEQHEDNVPIVQRWIDKWFWRGFRLLSLVSMMMDYMLPNKVMSWSEAWEVYYEQNGGALFKDLERYGIRPPKYQDVANDAKHHLSHQLWTTFYQYCQATNFHTWIPEKEEMDWMSEKYPDTFDKYYRPRYEYLAKEAAAGRRFYNNTLPQLCQVCQIPTIFTEKDAPTMLSHRQIEHEGERYHFCSDGCCDIFKHEPEKYIQAWLPVHQIYQGNCEGGDLETVVQKYYHINIGEDNFDYVGSPDQKHWLSIKGRKPADKNQDDA,soluble
7,MGSDKIHHHHHHMTEKEIVDYIKNNDIQKIKFAFADIDGVLRGKLIHTDKFLDGLKEGLGFCDVVFGWDSADAGYDNVSATGWHTGYPDKLAQIDLSTFRLIPWENNTPFFLADYKNNDQTALPICPRTLLKRIAQECSAMGYHAAFAQEFEWFNFRETQQSLVEKNFHDLTPLTNGMFGYSILRPSLEDAYYNDLFDLLGAFDIPLEGLHTETGPGVYECAYFHDEVVRAADKATLLKTAVKEIANKHGIIATFMAKISDKLPGCSGHIHQSLWNTGKTENLFYDPNQEHNMSDLFKHYVAGQLYCLPHIVPMLAPTVNSYKRLVEGAWAPTTLTWGFDNRTTALRVLNHSKKTARLEQRVSGSDTNPYLAIAASLASGLYGIKHKLSLDVPPTTGNGYANKSNGSIASNLMDATQLMKNSSIAKELFGEAFVQHFTATREWEWRQFSKHVSDWEMKRYMEII,not soluble
8,MGSDKIHHHHHHMRQLLTYDLMESMRVTNQWMGASARALCSYPQLGLAANPFIQLTAAWGEVAERSFARMAAKPDWGISSIPGADGRDHVISIEPVMERAFGDLIRFDVQGREPTGRKILLVAPMSGHYATLLRKTVLSLLPDADVYITDWHNARDIPVSAGKFDIEDYTHYLVDFMREMGPDTNVIAVCQPAPLALAATAYLAEEDPKAQPRTLTLIGGPIDPDAAATDVTDFGRRVTMGHLEKFVVQRVGFKYAGAGRMVYPGIQQLASFMAMNAETHAKAFSDQVVAVSKGEASDHDKHNVFYDEYLAVMDMTAEFYLSTVERIFKNREIAKNTFVVDGKPVDIGKITSVAVKTVEGGKDDISAPGQCVAALDMLTGLPEEKKANYIEPDAGHYGIFAGKSWRNNIRPLVLEFIDANSGIKTPAKRAKPKLVEDPPVENVAV,not soluble
9,MDDELRGLLARYARGELSADDARRAILRYPKWRVAEIDGELETVALDDGTPMLIAESSASDGREYSGLELVRDIAPLVGGLSFDPDEPWGSAFRPGALPELQNWARTVELEDAVAKPGPGQRDLLYEGPWWVAVSPGTGRPAVHRADGLDVITIMTAPDAAATFRRTERHRGLDVVRLGPALWGDLAKRSDFDGVRLNPLRPLAQLWPPHVPAMLVAGCDPRPNAEPLPARTVAEIHLWLDQHGARQEKRELSNRATPVGEVTVARAWWNYDRREIAFTRVAPASDTEGLGSVPSRILCAGKLRQSIQSKLAGLPRLTWRADAWHRQRAALAVGWALELEKLVCGERVPFAALRTPEGAHLWHLEPQAFTARAIRKLRDRAASFR,soluble
10,MGSDKIHHHHHHMKGKHKIVVKNNRLHYEFEIKRNITIIKGDSATGKTTLINMIRQFANLGNASGIEIECDAPCTVLEGNLWQMLLKNLSGNIIFIDEENQFIRQQEFAELVKASDNYFVIITRENLYNLPYSVEEIYGLYSSGKYQNTKQIYQEMYHIYPLNQDLSCKPDKIIVEDTNSGYEYFKAISKEKNIVCESAGGKTKIFAMLEQLKAETESICVIADGAAIGPEMDALYKMSVEKGNIKLYLPESFEWIILSSELLEDKEIKDIIDKPENYIESQEYFSWERFFTKLLVDKTAGTYLKYQKGKLNPTYLHEKNKNIILKNIKNSIDF,not soluble
11,MSLTKMVIKGGTVYDPLNGIDGEVMDIFIKDGKIVENLSDGELKDAKILDVKGKVVMPGGVDSHTHVAGPKVNTGRVMCPEDHYKSPLKKTHNTHCGSGEIVPSTYAQGYKYSSMGYTTLFEAAVPPMLARHTHEEFKVMPIVDKAGYLLLGSNWFVMKYLKEGNVEKAAAYVAWALETTKTFGIKLVNPAGVESWAWGKNVHSLEEENIHFGISSGEVIRGLGAVNEMLGLPMSIHLHANNLGHPGNWEFTIDTMDVAKNIKPAVNKQGYDNGVKTKYSHEREQSLYMTHMQFHSFGGTSWKDFESKAEDISNYVNKSDHVVMDSGSVAFGKAICMTGDGPGLYDLAVMNGQKWANVDVELECGSGVVPFVYSMKNKVHSVQWAMGIELLLLTDPRKVIMTTDNPNAGPFTKYPQLITWLMSKKAREDTMKLCHKWAGERSGLAGNDKELSLYDLATVTRATPAKAIGMGHRKGHLSPGADADITVYDISPDYNSSDYAAIEKAFTTALFTIKDGEVITKDGRIIETPKGRTYYVDAKFNEEIQKEIIADVQDWFRRYYSIGFSNYPVPDLYLTKPTPLNINVREGHHHHHH,not soluble
